B1: Mitogen-activated protein kinase kinase kinase 3 (Homo sapiens), Q99759 (parent)
chain: MDEQEALNSIMNDLVALQMNRRHRMPGYETMKNKDTGHSNRQSDVRIKFEHNGERRIIAFSRPVKYEDVEHKVTTVFGQPLDLHYMNNELSILLKNQDDLDKAIDILDRSSSMKSLRILLLSQDRNHNSSSPHSGVSRQVRIKASQSAGDINTIYQPPEPRSRHLSVSSQNPGRSSPPPGYVPERQQHIARQGSYTSINSEGEFIPETSEQCMLDPLSSAENSLSGSCQSLDRSADSPSFRKSRMSRAQSFPDNRQEYSDRETQLYDKGVKGGTYPRRYHVSVHHKDYSDGRRTFPRIRRHQGNLFTLVPSSRSLSTNGENMGLAVQYLDPRGRLRSADSENALSVQERNVPTKSPSAPINWRRGKLLGQGAFGRVYLCYDVDTGRELASKQVQFDPDSPETSKEVSALECEIQLLKNLQHERIVQYYGCLRDRAEKTLTIFMEYMPGGSVKDQLKAYGALTESVTRKYTRQILEGMSYLHSNMIVHRDIKGANILRDSAGNVKLGDFGASKRLQTICMSGTGMRSVTGTPYWMSPEVISGEGYGRKADVWSLGCTVVEMLTEKPPWAEYEAMAAIFKIATQPTNPQLPSHISEHGRDFLRRIFVEARQRPSAEELLTHHFAQLMY

Variants of: B1
Settings: with CCM2, Q9BSQ5-1
Sequence of CCM2, Q9BSQ5-1 (Q9BSQ5 whole entry): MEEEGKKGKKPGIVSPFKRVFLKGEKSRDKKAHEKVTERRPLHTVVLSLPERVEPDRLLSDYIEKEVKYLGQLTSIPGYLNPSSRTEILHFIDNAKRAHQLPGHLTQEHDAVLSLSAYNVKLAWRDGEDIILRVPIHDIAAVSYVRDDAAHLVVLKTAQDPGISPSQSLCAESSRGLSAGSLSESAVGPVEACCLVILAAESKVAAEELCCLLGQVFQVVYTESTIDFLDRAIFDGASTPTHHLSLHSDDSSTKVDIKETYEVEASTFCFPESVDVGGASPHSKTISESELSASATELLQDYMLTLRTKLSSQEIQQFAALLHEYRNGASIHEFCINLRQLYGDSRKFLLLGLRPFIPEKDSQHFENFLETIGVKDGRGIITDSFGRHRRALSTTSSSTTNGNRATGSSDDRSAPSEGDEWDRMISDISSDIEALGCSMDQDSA

Row | effect of a mutation on the interaction | Variant
1 | disrupting interaction strength | L7D
2 | disrupting interaction strength | L14D
3 | disrupting interaction strength | L17D
4 | disrupting interaction strength | I10D
